Data taken from patent publication US20170355769A1 (AbbVie / Abbott, published 2017).

T1: Human full length B7-H3 (human, UniProt Q5ZPR3 29-534)
T1 sequence: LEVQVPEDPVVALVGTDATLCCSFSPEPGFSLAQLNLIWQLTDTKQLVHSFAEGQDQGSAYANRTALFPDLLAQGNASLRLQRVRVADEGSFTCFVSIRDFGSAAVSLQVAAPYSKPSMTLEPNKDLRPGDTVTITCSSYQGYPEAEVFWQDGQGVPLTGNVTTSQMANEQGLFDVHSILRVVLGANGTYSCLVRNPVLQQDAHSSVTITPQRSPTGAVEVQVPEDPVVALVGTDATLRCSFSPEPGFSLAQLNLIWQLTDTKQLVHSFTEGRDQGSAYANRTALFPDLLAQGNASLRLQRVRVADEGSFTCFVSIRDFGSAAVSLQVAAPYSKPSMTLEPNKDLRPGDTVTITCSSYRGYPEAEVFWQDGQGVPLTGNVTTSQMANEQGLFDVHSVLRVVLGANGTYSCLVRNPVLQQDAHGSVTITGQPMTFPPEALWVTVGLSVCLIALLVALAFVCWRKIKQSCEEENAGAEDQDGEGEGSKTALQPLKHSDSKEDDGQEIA


These binders were tested against T1, Human full length B7-H3 (assay: cell-based or functional assay).

| Binder | EC50 nM H1650 (tumor cell cytotoxicity) |
| --- | --- |
| huAb3v2.5-TX (antibody, human IgG1, kappa, L234A L235A, V domains shown, synthon TX on reduced interchain Cys) VH: EVQLVQSGAEVKKPGSSVKVSCKASGYTFSSYWMHWVRQAPGQGLEWIGLIHPESGSTNYNEMFKNRATLTVDRSTSTAYMELSSLRSEDTAVYYCAGGGRLYFDYWGQGTTVTVSS VL: DIVMTQSPLSLPVTPGEPASISCRSSQSLVHSNRDTYLRWYLQKPGQSPQLLIYKVSNRFSGVPDRFSGSGSGTDFTLKISRVEAEDVGVYYCSQSTHVPYTFGGGTKVEIKR | 0.62 nM |
| huAb3v2.5-YY (antibody, human IgG1, kappa, L234A L235A, V domains shown, synthon YY on reduced interchain Cys) VH: EVQLVQSGAEVKKPGSSVKVSCKASGYTFSSYWMHWVRQAPGQGLEWIGLIHPESGSTNYNEMFKNRATLTVDRSTSTAYMELSSLRSEDTAVYYCAGGGRLYFDYWGQGTTVTVSS VL: DIVMTQSPLSLPVTPGEPASISCRSSQSLVHSNRDTYLRWYLQKPGQSPQLLIYKVSNRFSGVPDRFSGSGSGTDFTLKISRVEAEDVGVYYCSQSTHVPYTFGGGTKVEIKR | 0.71 nM |
| huAb3v2.5-ZT (antibody, human IgG1, kappa, L234A L235A, V domains shown, synthon ZT on reduced interchain Cys) VH: EVQLVQSGAEVKKPGSSVKVSCKASGYTFSSYWMHWVRQAPGQGLEWIGLIHPESGSTNYNEMFKNRATLTVDRSTSTAYMELSSLRSEDTAVYYCAGGGRLYFDYWGQGTTVTVSS VL: DIVMTQSPLSLPVTPGEPASISCRSSQSLVHSNRDTYLRWYLQKPGQSPQLLIYKVSNRFSGVPDRFSGSGSGTDFTLKISRVEAEDVGVYYCSQSTHVPYTFGGGTKVEIKR | 0.95 nM |
| huAb3v2.5-SE (antibody, human IgG1, kappa, L234A L235A, V domains shown, synthon SE on reduced interchain Cys) VH: EVQLVQSGAEVKKPGSSVKVSCKASGYTFSSYWMHWVRQAPGQGLEWIGLIHPESGSTNYNEMFKNRATLTVDRSTSTAYMELSSLRSEDTAVYYCAGGGRLYFDYWGQGTTVTVSS VL: DIVMTQSPLSLPVTPGEPASISCRSSQSLVHSNRDTYLRWYLQKPGQSPQLLIYKVSNRFSGVPDRFSGSGSGTDFTLKISRVEAEDVGVYYCSQSTHVPYTFGGGTKVEIKR | 0.85 nM |
| huAb3v2.5-LB (antibody, human IgG1, kappa, L234A L235A, V domains shown, synthon LB on reduced interchain Cys) VH: EVQLVQSGAEVKKPGSSVKVSCKASGYTFSSYWMHWVRQAPGQGLEWIGLIHPESGSTNYNEMFKNRATLTVDRSTSTAYMELSSLRSEDTAVYYCAGGGRLYFDYWGQGTTVTVSS VL: DIVMTQSPLSLPVTPGEPASISCRSSQSLVHSNRDTYLRWYLQKPGQSPQLLIYKVSNRFSGVPDRFSGSGSGTDFTLKISRVEAEDVGVYYCSQSTHVPYTFGGGTKVEIKR | 2.59 nM |
| huAb3v2.5-SR (antibody, human IgG1, kappa, L234A L235A, V domains shown, synthon SR on reduced interchain Cys) VH: EVQLVQSGAEVKKPGSSVKVSCKASGYTFSSYWMHWVRQAPGQGLEWIGLIHPESGSTNYNEMFKNRATLTVDRSTSTAYMELSSLRSEDTAVYYCAGGGRLYFDYWGQGTTVTVSS VL: DIVMTQSPLSLPVTPGEPASISCRSSQSLVHSNRDTYLRWYLQKPGQSPQLLIYKVSNRFSGVPDRFSGSGSGTDFTLKISRVEAEDVGVYYCSQSTHVPYTFGGGTKVEIKR | 0.59 nM |
| huAb3v2.5-WD (antibody, human IgG1, kappa, L234A L235A, V domains shown, synthon WD on reduced interchain Cys) VH: EVQLVQSGAEVKKPGSSVKVSCKASGYTFSSYWMHWVRQAPGQGLEWIGLIHPESGSTNYNEMFKNRATLTVDRSTSTAYMELSSLRSEDTAVYYCAGGGRLYFDYWGQGTTVTVSS VL: DIVMTQSPLSLPVTPGEPASISCRSSQSLVHSNRDTYLRWYLQKPGQSPQLLIYKVSNRFSGVPDRFSGSGSGTDFTLKISRVEAEDVGVYYCSQSTHVPYTFGGGTKVEIKR | 0.83 nM |
| huAb3v2.5-ZZ (antibody, human IgG1, kappa, L234A L235A, V domains shown, synthon ZZ on reduced interchain Cys) VH: EVQLVQSGAEVKKPGSSVKVSCKASGYTFSSYWMHWVRQAPGQGLEWIGLIHPESGSTNYNEMFKNRATLTVDRSTSTAYMELSSLRSEDTAVYYCAGGGRLYFDYWGQGTTVTVSS VL: DIVMTQSPLSLPVTPGEPASISCRSSQSLVHSNRDTYLRWYLQKPGQSPQLLIYKVSNRFSGVPDRFSGSGSGTDFTLKISRVEAEDVGVYYCSQSTHVPYTFGGGTKVEIKR | 1.1 nM |
| huAb3v2.5-TV (antibody, human IgG1, kappa, L234A L235A, V domains shown, synthon TV on reduced interchain Cys) VH: EVQLVQSGAEVKKPGSSVKVSCKASGYTFSSYWMHWVRQAPGQGLEWIGLIHPESGSTNYNEMFKNRATLTVDRSTSTAYMELSSLRSEDTAVYYCAGGGRLYFDYWGQGTTVTVSS VL: DIVMTQSPLSLPVTPGEPASISCRSSQSLVHSNRDTYLRWYLQKPGQSPQLLIYKVSNRFSGVPDRFSGSGSGTDFTLKISRVEAEDVGVYYCSQSTHVPYTFGGGTKVEIKR | 0.53 nM |
| huAb3v2.5-YG (antibody, human IgG1, kappa, L234A L235A, V domains shown, synthon YG on reduced interchain Cys) VH: EVQLVQSGAEVKKPGSSVKVSCKASGYTFSSYWMHWVRQAPGQGLEWIGLIHPESGSTNYNEMFKNRATLTVDRSTSTAYMELSSLRSEDTAVYYCAGGGRLYFDYWGQGTTVTVSS VL: DIVMTQSPLSLPVTPGEPASISCRSSQSLVHSNRDTYLRWYLQKPGQSPQLLIYKVSNRFSGVPDRFSGSGSGTDFTLKISRVEAEDVGVYYCSQSTHVPYTFGGGTKVEIKR | 0.71 nM |
| huAb3v2.5-XW (antibody, human IgG1, kappa, L234A L235A, V domains shown, synthon XW on reduced interchain Cys) VH: EVQLVQSGAEVKKPGSSVKVSCKASGYTFSSYWMHWVRQAPGQGLEWIGLIHPESGSTNYNEMFKNRATLTVDRSTSTAYMELSSLRSEDTAVYYCAGGGRLYFDYWGQGTTVTVSS VL: DIVMTQSPLSLPVTPGEPASISCRSSQSLVHSNRDTYLRWYLQKPGQSPQLLIYKVSNRFSGVPDRFSGSGSGTDFTLKISRVEAEDVGVYYCSQSTHVPYTFGGGTKVEIKR | 2.18 nM |
| huAb3v2.5-AAA (antibody, human IgG1, kappa, L234A L235A, V domains shown, synthon AAA on reduced interchain Cys) VH: EVQLVQSGAEVKKPGSSVKVSCKASGYTFSSYWMHWVRQAPGQGLEWIGLIHPESGSTNYNEMFKNRATLTVDRSTSTAYMELSSLRSEDTAVYYCAGGGRLYFDYWGQGTTVTVSS VL: DIVMTQSPLSLPVTPGEPASISCRSSQSLVHSNRDTYLRWYLQKPGQSPQLLIYKVSNRFSGVPDRFSGSGSGTDFTLKISRVEAEDVGVYYCSQSTHVPYTFGGGTKVEIKR | 0.85 nM |
| huAb3v2.5-AAD (antibody, human IgG1, kappa, L234A L235A, V domains shown, synthon AAD on reduced interchain Cys) VH: EVQLVQSGAEVKKPGSSVKVSCKASGYTFSSYWMHWVRQAPGQGLEWIGLIHPESGSTNYNEMFKNRATLTVDRSTSTAYMELSSLRSEDTAVYYCAGGGRLYFDYWGQGTTVTVSS VL: DIVMTQSPLSLPVTPGEPASISCRSSQSLVHSNRDTYLRWYLQKPGQSPQLLIYKVSNRFSGVPDRFSGSGSGTDFTLKISRVEAEDVGVYYCSQSTHVPYTFGGGTKVEIKR | 0.49 nM |
| huAb13v1-XW (antibody, human IgG1, kappa, L234A L235A, V domains shown, synthon XW on reduced interchain Cys) VH: EVQLQESGPGLVKPSETLSLTCAVTGYSITSGYSWHWIRQFPGNGLEWMGYIHSSGSTNYNPSLKSRISISRDTSKNQFFLKLSSVTAADTAVYYCAGYDDYFEYWGQGTTVTVSS VL: DIQMTQSPSSLSASVGDRVTITCKASQNVGFNVAWYQQKPGKSPKALIYSASYRYSGVPSRFSGSGSGTDFTLTISSLQPEDFAEYFCQQYNWYPFTFGQGTKLEIKR | 0.86 nM |
| huAb13v1-KZ (antibody, human IgG1, kappa, L234A L235A, V domains shown, synthon KZ on reduced interchain Cys) VH: EVQLQESGPGLVKPSETLSLTCAVTGYSITSGYSWHWIRQFPGNGLEWMGYIHSSGSTNYNPSLKSRISISRDTSKNQFFLKLSSVTAADTAVYYCAGYDDYFEYWGQGTTVTVSS VL: DIQMTQSPSSLSASVGDRVTITCKASQNVGFNVAWYQQKPGKSPKALIYSASYRYSGVPSRFSGSGSGTDFTLTISSLQPEDFAEYFCQQYNWYPFTFGQGTKLEIKR | 179 nM |
| huAb13v1-SE (antibody, human IgG1, kappa, L234A L235A, V domains shown, synthon SE on reduced interchain Cys) VH: EVQLQESGPGLVKPSETLSLTCAVTGYSITSGYSWHWIRQFPGNGLEWMGYIHSSGSTNYNPSLKSRISISRDTSKNQFFLKLSSVTAADTAVYYCAGYDDYFEYWGQGTTVTVSS VL: DIQMTQSPSSLSASVGDRVTITCKASQNVGFNVAWYQQKPGKSPKALIYSASYRYSGVPSRFSGSGSGTDFTLTISSLQPEDFAEYFCQQYNWYPFTFGQGTKLEIKR | 0.63 nM |
| huAb13v1-YG (antibody, human IgG1, kappa, L234A L235A, V domains shown, synthon YG on reduced interchain Cys) VH: EVQLQESGPGLVKPSETLSLTCAVTGYSITSGYSWHWIRQFPGNGLEWMGYIHSSGSTNYNPSLKSRISISRDTSKNQFFLKLSSVTAADTAVYYCAGYDDYFEYWGQGTTVTVSS VL: DIQMTQSPSSLSASVGDRVTITCKASQNVGFNVAWYQQKPGKSPKALIYSASYRYSGVPSRFSGSGSGTDFTLTISSLQPEDFAEYFCQQYNWYPFTFGQGTKLEIKR | 0.33 nM |
| huAb13v1-SR (antibody, human IgG1, kappa, L234A L235A, V domains shown, synthon SR on reduced interchain Cys) VH: EVQLQESGPGLVKPSETLSLTCAVTGYSITSGYSWHWIRQFPGNGLEWMGYIHSSGSTNYNPSLKSRISISRDTSKNQFFLKLSSVTAADTAVYYCAGYDDYFEYWGQGTTVTVSS VL: DIQMTQSPSSLSASVGDRVTITCKASQNVGFNVAWYQQKPGKSPKALIYSASYRYSGVPSRFSGSGSGTDFTLTISSLQPEDFAEYFCQQYNWYPFTFGQGTKLEIKR | 0.59 nM |
| huAb13v1-TX (antibody, human IgG1, kappa, L234A L235A, V domains shown, synthon TX on reduced interchain Cys) VH: EVQLQESGPGLVKPSETLSLTCAVTGYSITSGYSWHWIRQFPGNGLEWMGYIHSSGSTNYNPSLKSRISISRDTSKNQFFLKLSSVTAADTAVYYCAGYDDYFEYWGQGTTVTVSS VL: DIQMTQSPSSLSASVGDRVTITCKASQNVGFNVAWYQQKPGKSPKALIYSASYRYSGVPSRFSGSGSGTDFTLTISSLQPEDFAEYFCQQYNWYPFTFGQGTKLEIKR | 0.22 nM |
